Assay: label from the status in PepcDB records

Sequence	protein production
MFIMQPEDTMTLIHDIILASWDILLEAAPYVLFGFFVAGLLKAYVPASFVARHLGRGHVGPVFKAALFGIPLPLCSCGVIPAAAGLRQQGASKGATTSFLIATPETGVDSMAVTWALLDPVMTVARPFAALLTSVAAGLMVDLFPERKRGESEISPPVMSPSRDAALHDGPTTLPAPVIAPVLHGAAGIAAAGSVSLGPIREHAACTCSGHASVAASACCGTSHSVSAPSGASCGCGSAAHAHSGTGCCGHDTPIGQVSGGFSGVVERFRGGMRFAFGELVADIGGWLLLGVVLAAVITILIPDDLFSGTFASGIGGILLMMVVGIPLYVCATASTPIAAAFALKGISPGAALVFLLAGPATNVATITVVARMLGRKAAVIYVAVIGVMSVALGLAVNMLYGWLGMGVTGWVQGSADAEPGMLSAVAAVVLLLLVLYQWLPALVARLRGEAHPAGCGCGH	failed
MFITFEGIDGSGKTTQSHLLAEYLSEIYGVNNVVLTREPGGTLLNESVRNLLFKAQGLDSLSELLFFIAMRREHFVKIIKPSLMQKKIVICDRFIDSTIAYQGYGQGIDCSLIDQLNDLVIDVYPDITFIIDVDINESLSRSCKNGYEFADMEFYYRVRDGFYDIAKKNPHRCHVITDKSETYDIDDINFVHLEVIKVLQMV	not failed
MFIYGSDRLGGKMDINGFIEELDSLYTERRINDVEPFFNESIEQAKKENDLAAQFTILNEMMGFFRDTSQFEKSIKACNDCIELMKKMGIEGTVDYATSLQNVANAYRAAGKLAESLEVYKEVFSIYNENIPSDDYRMASLNNNIALLYQEMNDFPMAVQHLKKALSIIEKIEGMDIEVATTYTNLAASLIEINQASQAEDYLKKALEIFDRDEVKNFHYSGALCAMASVKCSLNQYEEAAKLYEKALPEIEANMGRGSAYNITKENLAKVFDKIKEEKKELTGIELAKSFYEEYGKDMIHNNFSEYEDKIAVGFVGEGSERFGFDDVYSRDHDFGPGFCMWITEDVYEKIGEKLQDEYNKLPKSYKGITRVDTIMAEGRVGVCVVEDFYKKYTGSGDGNLTLEQWINLEDYKIATVTNGEVFRDDLGYFSKIRRKFENQPFQARLVKLARQLGAMAQTGQSNYERAMARKDYVTAQICISDFMKETMKCVYILNNKFAPYYKWLFKGVSRLDGTEKIVSLLEKLSQLPAQKNAWDGYLYDNTKFNEKDEKAIIMEEIAKIIIDKLLELKLIKNRNSNFLNDYVRPIMDLAEGKVEMFDREKTIDKIVKLEFEAFDKVQNVGGRASCQNNWPFFYVMRKSQYMTWTDEMLECICNLWEENKAKGWNMITEKYGRMMEHTSPEEYKKIKDNFPEKSERTIAIVNQIAQIQVDWMKDFAKSYPKLASNARDITSDADQIDNTSYETYLKGELLTYSEELLKLYAQFIVNLAREGKNLAYMTIENTAHLQGYATLEAAESSIR	failed
MFKGLRYLTFVFGGLLGILLAYGFGQVVELELSKFAVISIYSIFAIIFGIIFYLLFPVILKKLTVNFENMIKKAQKTPTSDIVTAIIGLIVGLIIAFLISLPISNIKFPVIGNLLSATITIFIYCALGFIGIKIAVDKKEEILKFKLFSREKSFKKGHVYPKILDTSVIIDGRIYDIIKTGFLEGPIIIAMFMVKELQYIADSEDPNRRQRGRRGLDILDLLQNEKNIEIKIVDKDYKNIKEVDHKLLKLTEDYHGKLITNDYNLNKVASLQKISILNINELALAVKPVVIQGEKLIVEVINRGKEPEQGLGYLSDGTMIVVEDGKDYIGQTIETTVTSILQTPAGKMIFTRKNLK	failed
MFKIQEVRELIKLIDSSNIDEFEYKKDGTTIKMKKRGNEVVAVQAPVAKQAVQPVAPVEVETTVAAAQVEVPKQEEKKAVQNENLHKITSPMVGTFYSSSSSSPDTPPYVSVGDRVSKDSIVCIVEAMKLFNEIDADVDGEIVEILVNNGQLVEYGQPLFLVKA	failed
MFKRIAQTAGFTGLLAALLLTLLQSFWVVPLIQQAETYEKAPAEHVHEHADGAVAEHSHAHDEAAWEPENGWQRVLSTTGGNLVVAVGFALMLAGLYTLRAPGRTAQGAWWGLAGFAVFVLAPTLGLPPELPGTAAAELSQRQLWWIGTAASTAAGLALLVFGQNWLLKVLGAAILVVPHVIGAPQPLVHESLAPEALESQFRVASLLTNALFWVALGLISAWLFRRSNVHTDNAHSNHA	failed
MFKRIGLISIALSLNTISFTSEACSALVFNKNKPATVAVNLDWKYREGAFVIHPRNAMMVSSVDYHSMHPLIWKSQYGSVIFHGGNRFKAGPSADGMNEKGLTASILMLDSSIYPSNSELPALKTTEWVQYILDNFQTVQEVIDDSSNYQLVADTYRGITMNVHLMVSDAEGKSAVFEYLDGKLVIHTQDNLTTPVLTNTDYKLSLALLEEYQDHGGSKALPGGYDSKSRFVRAAHYLKKLPSFIAKEEHIAYAFNGLNVVTQAPGTSSPTQLSMVFDIPTKTIYFRSINEAALRVIPMDSIDFDYLYQPIALNVYQHLSGDVTDKFQPMIG	failed
MFKRLKDSALLFWSLEILIVATLIWVCTNIGFLFQPIGTFLSVVFMPILISGFLFYMLNPLVKLLTKVHYKKFRISRTGAVAIVFVLLFGLLVWGAVSLLPRLVSQVTQLIYNLPSIATEMQKAATKLINNSSVLKRIDISSYTKQFNGEISKYSQNFLSSLSSSVVTVISTITSVTIMAITIPVVLFYMLKDSEKFIPAISRFLPKKQRPEVIGLLQKMGDTISSYISGQVIECLFVGTFTAIGYMLISQPYGLLLGVIAGLTNIIPYVGPYIGIAPSLIVAFTKSPMQVVYVIIVVVIVQQVDGNLIYPNIIGRTLKIHPLTIIILLLAAGNIAGILGMILAIPFYAVVRTVVIYLYNIVELRNEEHLRKQTTVYQPQPAKATKADLTTTTKSKK	failed
MFKTVIIMLMAVSAGTIGDILLAKGMKELGDLSAMNLRGILNVAGQALTSPKLIFGTAMLAIFFFLWLAVLSWEDLSVALPMQALNYVLVAFLSQWFLGETVSPLRWTGTIMVCVGVMLITKSGTP	failed
MFLDYFALGLLIFVALVIFYGIIVIHDIPYEIAKEREHPHQDAIHYAGWVSLFTLHALWPFLWIWATLWRKERGWGFQKLEAEQHDIHHRVDVLIDEVKQLRTELETLKTSSLSVPKSTPAASTSEEKQ	failed
MFLRGNPDKTEPAFDARPLKTKEIARFGEGTPLPWLDRHALACVDASGDLRDVLKSTALAITLFCACTGPAMAYAPDETPIVIGRSTLLESKVLGQLRRINVHTPADYATSGKTYPVLFLLDGGEREDFPHIAGLAQLGELSWTYREMIVVGIEGIDRRHDLTHPSTVAQEQADFPTLGGSAAYRRFLSEELKPWVAARYRTNGESAIMGESLAGLFVIETLLKQPTLFDAYIAASPSLWWSDQALARGAPADIARWPALGSRKLYLTIGDEGSTMQEGVDKVMAAIGAAKPAGLTLVYDPMPHEQHSTIYHPAALKAFRTVWPGPRPD	failed
MFLRIDRLQIELPMPKEQDPNAAAAVQALLGGRFGEMSTLMNYMYQSFNFRGKKALKPYYDLIANIATEELGHIELVAATINSLLAKNPGKDLEEGVDPESAPLGFAKDVRNAAHFIAGGANSLVMGAMGEHWNGEYVFTSGNLILDLLHNFFLEVAARTHKLRVYEMTDNPVAREMIGYLLVRGGVHAAAYGKALESLTGVEMTKMLPIPKIDNSKIPEAKKYMDLGFHRNLYRFSPEDYRDLGLIWKGASPEDGTEVVVVDGPPTGGPVFDAGHDAAEFAPEFHPGELYEIAKKLYEKAK	not failed
MFLSVVTVAFRNYEGVVKTWRSLRNLARDPGLSFEWIVVDGGSEDGTREFLQKRHGEFNLRFISEKDRGIYDAMNKGIALAQGRYTLFLNSGDAFHDDAALFVRQLARQKGEAMYIGDALLDFGGGHKIRRKAKPGYYIYHSLPASHQAIFFPTAALKKYPYDLQYHVSSDYALAARLYKAGYPFRRINGLVSEFSMGGVSTSNNLELCQDAKNVQRKILRVPGFWAQLSYLLRLKTTGKTKARYNKVLEHHHHHH	failed
MFLVTGATGDIGRRVIRLLREHNHSVRGFARLTSRYGELEHRGANIFIGDLRREQDIEKACQGVQYIISAHGSDNDALTLDYRANIALIDQAKANGVQHFVFISVLGAERGYEDAPVFKAKRAVENYLAASGLNYTILRPAGLASNLLPLAERFRETGLYLLIGDPKNRTSIVSTDDLARIVVDSVTVPEARNQIFSVGGPEILLREDIPQIFSHIFKKEPIVVNSPLLVIDGLRGVLGLINPEAQQALGTFRTLLSNEFFCRKDEIAKLEQTFNFPLETLESFLRRYLAVLEHHHHHH	failed
MFMYTEFRSQLLAGAGTSAAGQSARMAVLAGDGATGVQVSCVVPGLNEAANLRVLVPALRACLEQWCASWEIIVVDDGSTDDTAELMAQWSAVEGIRYVQLSRNFGKEAALTAGLEAADGDAVICLDADMQHPPELIGDMLAAWRNGADMVYAVRRQRDDEPWFKRVGARAFYRLLSTARGVEVPPHAGDFRLMDRRVVEALVALPERTRFMKGLYAWVGFKSQAVPYTPQARRHGASHFSAWKLFRLACDGLTAFTTWPLRLVSLIGVLFALLSLSYGGYLVADYLISGNAVSGWTTIVTALLFFAGINLISLGVVGEYVARIFDEVKGRPLFIARQRRGRAKRAAKARSQ	failed
MFNKLVFKNLKLKKLSTSLVVVASLLVAQAPFANYAEAAGAEKVEKKKKRPTQLVGPRVGKKVQKAFEAYSADDIKGALVILLDIEASKPYDKAYVSRMVAVMYATLGDNDQKTIEYLKKALEPDILNEVDQSESLKLLGDMQMQTKDYKGALKSFYAWMDFSGKDDGPTYVKIANAYYSLKQLDKVIEPADKAIAAFGDKPNQNPYILKITSYYERKMYKEAVKVLETVIQVFPENKQWWTQLPMFYLLIEDYDKAVQTLDLAYKLGHLDKESQIKTLASLYSQTEAPYKAAQLLEKYIASGLVKRDDKNISTLANAWHSAQHIDKAASYYGELAKMTSDAKHYRKQGMLLKQDEQFSKAIVALNKAIELGVSNQGRIHMSIAESYFYLEKYKKAYAAIQKAMKDPSARKSAKGWKSFIVDTARRKNVTI	failed
MFNLYPPHRSLEGAAILGDNCSRIFNVSDTVVNTLHIVMQSHANPLGILHGGNMIRWLVDAGTLAASKVVVGYPLLAGIDFIYLGKPVGVGETIAVFAWSPYAGRSSVEVGLAAYSLGRPGGQGLERVSAAHMTFVNVKPHEGVLRPHPHGSCIEAVDREEERLLEASMKMREARVERLRGRELLRQTVYSLRESGTEPFEVESYRIVNPIDSVAYDVMHAGAMLYIVDELGAVAALRSSAGIVVTGFVGPADFVAPMRVGEVLRMWARTSYVGRSSVEVLIRSASGFMGGGEARLTSEAYLTYISLDSSGRPLEINAPRGWEPEEQALRRAEWRRRLIRSIDSGETALEPPRRFLEMLMRGRVG	failed
MFPQADEPERDTLPGQEEDPLPTGQEQPSITPIAGTEAQYIDIAEWYDSDSILYITDEGENSLVYIYNLLTGEKKSLFSSDDAVIKVTANSTHSQFAIQTVTQAGDAPVSIIDSQGELLMKLEDFGEDFSIFWSPYEEDKLIAVAYLPDWEQDLYLIDTSDKQVEMLDLDQSFVQWLDERTIVYLDWNGDSEGYYAPLYTFDLETEEVVLLHEEAIATLGFGDHVTLIIERPEQGAEVTTYQFWNGSEQLAEWSVPILRTYSEQWWIPFYDFDLNKRLFYAYKPNRTGDYFEYDGGFSFIAFDVDHGEETVLFESDEHVPFRLSPTGQRALFGPRLETVMDLPTGESNSLIELEHHHHHH	failed
MFPYFESVATASTEFHAIEPDPHMRRQAAEQANTQATPIHIESSPAEALPYYEDTFDVVITSMVFCTIPDIESAMSEITRVLKPGGELRFFEHVIDDGWRARLQSALAPLWKRLAGGCHLTRQTGTRLVADQSFDVVEIERLNLGITPIRPFVRGRLRKRSVSSTRLEHHHHHH	failed

Reference: a protein production outcome set (Wang et al. 2014)
